Source: US20130095097A1 (EMERGENT PRODUCT DEVELOPMENT SEATTLE, published 2013)
One block for each binder: values may come before it.

Columns and labels:
CD28 mIg [1] = target: T1, CD28 mIg (UniProt P10747 19-152); test: SPR, CD28-mIgG immobilized, kinetic KD (kd (I)/ka (I))
Method: (§1) Surface plasmon resonance (SPR) measurements were performed on a Biacore T100 SPR using HBS-P+ (GE Healthcare) as a running buffer. CD28-mIgG (25 μg/mL in 10 mM sodium acetate, pH 4.0) was directly immobilized onto a CM5 chip using standard amine coupling chemistry (Biacore Amine Coupling Kit, GE Healthcare), with final immobilization levels between 800 and 1900 Ru (resonance units). 2E12 binding domain constructs were injected at 25° C. or 37° C. for 150 seconds at a flow rate of 30 μl/min in a series of concentrations from 10 nM to 1 μM. Dissociation was monitored for 1200 seconds, and the surface was regenerated by injecting 50 mM NaOH for 60 seconds. Binding interactions with the surface were stable through at least 60 regeneration cycles. Data were analyzed using BiaEvaluation for the T100 software (version 2.0, GE Healthcare).
(§2) Surface plasmon resonance was used to measure binding of immobilized CD28 by 2E12 binding domain constructs. […] Binding kinetics of the bivalent 2E12 constructs (e.g., 2E12 mAb, FIGS. 27A-27B) to immobilized CD28 could not be fit to a 1:1 Langmuir binding model, but could be fit with high accuracy to a bivalent analyte binding model (Table 5). Equilibrium dissociation constants (1(D) could be calculated with high accuracy for each construct by fitting the observed response at saturation to a steady-state equilibrium model (Table 5).

CD28 mIg [2] = target: T1, CD28 mIg; test: SPR, CD28-mIgG immobilized, 1:1 Langmuir model, ka (I)
Method: as §1, §2

CD28 mIg [3] = target: T1, CD28 mIg; test: SPR, CD28-mIgG immobilized, 1:1 Langmuir model, kd (I)
Method: as §1, §2

CD28 mIg [4] = target: T1, CD28 mIg; test: SPR, CD28-mIgG immobilized, steady-state equilibrium KD
Method: as §1, §2

CD28 on Jurkat T cells = target: T2, CD28 on Jurkat T cells (UniProt P10747 19-220, limits assumed); test: flow cytometry on Jurkat cells
T2 construct: whole, on cells; also called Jurkat cells; Jurkat T cell lines

CD28 mIg [5] = target: T3, CD28 mIg (UniProt P10747 19-152); test: SPR, CD28-mIgG immobilized, kinetic KD, bivalent analyte model, initial binding at the first site only
T3 construct: Coated on ELISA plates and amine-coupled to a CM5 chip; also called CD28-mIgG; immobilized CD28
Method: as §1, §2

CD28 mIg [6] = target: T3, CD28 mIg; test: SPR, CD28-mIgG immobilized, bivalent analyte model, second on rate (avidity); parameters: unit not given here
Method: as §1, §2

CD28 mIg [7] = target: T3, CD28 mIg; test: SPR, CD28-mIgG immobilized, bivalent analyte model, first on rate ka (I)
Method: as §1, §2

CD28 mIg [8] = target: T3, CD28 mIg; test: SPR, CD28-mIgG immobilized, bivalent analyte model, first off rate kd (I)
Method: as §1, §2

CD28 mIg [9] = target: T3, CD28 mIg; test: SPR, CD28-mIgG immobilized, steady-state equilibrium KD
Method: as §1, §2

CD28 mIg [10] = target: T3, CD28 mIg; test: SPR, CD28-mIgG immobilized, bivalent analyte model, second off rate (avidity)
Method: as §1, §2

CD28 mIg [11] = target: T3, CD28 mIg; test: SPR, CD28-mIgG immobilized; reference 2E12 SMIP (M0039)
Method: as §1, §2

B1: Interceptor X0124 (X0112 + X0113) (other)
chain 1: QVQLKESGPGSVAPSQSLSITCTVSGFSLTGYGVNWVRQPPGKGLEWLGMIWGDGSTDYNSALKSRLSITKDNSKSQVFLKMNSLQTDDTARYYCARDGYSNFHYYVMDYWGQGTSVTVSSGGGGSGGGGSGGGGSGGGGSDIVLTQSPASLAVSLGQRATISCRASESVEYYVTSLMQWYQQKPGQPPKLLISAASNVESGVPARFSGSGSGTDFSLNIHPVEEDDIAMYFCQQSRKVPWTFGGGTKLEIKSSSASTKGPSVFPLAPSSKSTSGGTAALGCLVKDYFPEPVTVSWNSGALTSGVHTFPAVLQSSGLYSLSSVVTVPSSSLGTQTYICNVNHKPSNTKVDKKVRTEPKSSDKTHTCPPCPSGAPELLGGPSVFLFPPKPKDTLMISRTPEVTCVVVDVSHEDPEVKFNWYVDGVEVHNAKTKPREEQYNSTYRVVSVLTVLHQDWLNGKEYKCKVSNKALPAPIEKTISKAKGQPREPQVYTLPPSRDELTKNQVSLTCLVKGFYPSDIAVEWESNGQPENNYKTTPPVLDSDGSFFLYSKLTVDKSRWQQGNVFSCSVMHEALHNHYTQKSLSLSPGK
chain 2: TVAAPSVFIFPPSDEQLKSGTASVVCLLNNFYPREAKVQWKVDNALQSGNSQESVTEQDSKDSTYSLSSTLTLSKADYEKHKVYACEVTHQGLSSPVTKSFNRGERTEPKSSDKTHTCPPCPSGAPELLGGPSVFLFPPKPKDTLMISRTPEVTCVVVDVSHEDPEVKFNWYVDGVEVHNAKTKPREEQYNSTYRVVSVLTVLHQDWLNGKEYKCKVSNKALPAPIEKTISKAKGQPREPQVYTLPPSRDELTKNQVSLTCLVKGFYPSDIAVEWESNGQPENNYKTTPPVLDSDGSFFLYSKLTVDKSRWQQGNVFSCSVMHEALHNHYTQKSLSLSPGK
notes: Monovalent anti-CD28 polypeptide heterodimer; After protein A alone the preparation also holds X0113 homodimer; also called Heterodimer 1 (X0124); X00124
Kd (CD28 mIg [1]): 0.0352 µM
kon (CD28 mIg [2]): 141000 M⁻¹ s⁻¹
koff (CD28 mIg [3]): 0.00497 s⁻¹
Kd (CD28 mIg [4]): 0.104 µM

B2: Interceptor X0132 (X0130 + X0131) (other)
chain 1: QVQLKESGPGSVAPSQSLSITCTVSGFSLTGYGVNWVRQPPGKGLEWLGMIWGDGSTDYNSALKSRLSITKDNSKSQVFLKMNSLQTDDTARYYCARDGYSNFHYYVMDYWGQGTSVTVSSGGGGSGGGGSGGGGSGGGGSDIVLTQSPASLAVSLGQRATISCRASESVEYYVTSLMQWYQQKPGQPPKLLISAASNVESGVPARFSGSGSGTDFSLNIHPVEEDDIAMYFCQQSRKVPWTFGGGTKLEIKSSSASTKGPSVFPLAPSSKSTSGGTAALGCLVKDYFPEPVTVSWNSGALTSGVHTFPAVLQSSGLYSLSSVVTVPSSSLGTQTYICNVNHKPSNTKVDKKVRTEPKSSDKTHTCPPCPSGAPELLGGPSVFLFPPKPKDTLMISRTPEVTCVVVDVSHEDPEVKFNWYVDGVEVHNAKTKPREEQYNSTYRVVSVLTVLHQDWLNGKEYKCKVSNKALPAPIEKTISKAKGQPREPQVYTLPPSRDELTKNQVSLTCLVKGFYPSDIAVEWESNGQPENNYKTTPPVLDSDGSFFLYSKLTVDKSRWQQGNVFSCSVMHEALHNHYTQKSLSLSPGKSRTVAAPSVFIFPPSDEQLKSGTASVVCLLNNFYPREAKVQWKVDNALQSGNSQESVTEQDSKDSTYSLSSTLTLSKADYEKHKVYACEVTHQGLSSPVTKSFNRGE
chain 2: TVAAPSVFIFPPSDEQLKSGTASVVCLLNNFYPREAKVQWKVDNALQSGNSQESVTEQDSKDSTYSLSSTLTLSKADYEKHKVYACEVTHQGLSSPVTKSFNRGERTEPKSSDKTHTCPPCPSGAPELLGGPSVFLFPPKPKDTLMISRTPEVTCVVVDVSHEDPEVKFNWYVDGVEVHNAKTKPREEQYNSTYRVVSVLTVLHQDWLNGKEYKCKVSNKALPAPIEKTISKAKGQPREPQVYTLPPSRDELTKNQVSLTCLVKGFYPSDIAVEWESNGQPENNYKTTPPVLDSDGSFFLYSKLTVDKSRWQQGNVFSCSVMHEALHNHYTQKSLSLSPGKSRASTKGPSVFPLAPSSKSTSGGTAALGCLVKDYFPEPVTVSWNSGALTSGVHTFPAVLQSSGLYSLSSVVTVPSSSLGTQTYICNVNHKPSNTKVDKKV
notes: also called Heterodimer 2 (X0132)
Kd (CD28 mIg [1]): 0.0437 µM
kon (CD28 mIg [2]): 149000 M⁻¹ s⁻¹
koff (CD28 mIg [3]): 0.0065 s⁻¹
Kd (CD28 mIg [4]): 0.134 µM
binding result (CD28 on Jurkat T cells): binds

B5: Interceptor X0128 (X0120 + X0121) (other)
chain 1: QVQLKESGPGSVAPSQSLSITCTVSGFSLTGYGVNWVRQPPGKGLEWLGMIWGDGSTDYNSALKSRLSITKDNSKSQVFLKMNSLQTDDTARYYCARDGYSNFHYYVMDYWGQGTSVTVSSGGGGSGGGGSGGGGSGGGGSDIVLTQSPASLAVSLGQRATISCRASESVEYYVTSLMQWYQQKPGQPPKLLISAASNVESGVPARFSGSGSGTDFSLNIHPVEEDDIAMYFCQQSRKVPWTFGGGTKLEIKSSSASTKGPSVFPLAPSSKSTSGGTAALGCLVKDYFPEPVTVSWNSGALTSGVHTFPAVLQSSGLYSLSSVVTVPSSSLGTQTYICNVNHKPSNTKVDKKVRTEPKSSDKTHTCPPCPSGAPELLGGPSVFLFPPKPKDTLMISRTPEVTCVVVDVSHEDPEVKFNWYVDGVEVHNAKTKPREEQYNSTYRVVSVLTVLHQDWLNGKEYKCKVSNKALPAPIEKTISKAKGQPREPQVYTLPPSRDELTKNQVSLTCLVKGFYPSDIAVEWESNGQPENNYKTTPPVLDSDGSFFLYSKLTVDKSRWQQGNVFSCSVMHEALHNHYTQKSLSLSPGKSRASTKGPSVFPLAPSSKSTSGGTAALGCLVKDYFPEPVTVSWNSGALTSGVHTFPAVLQSSGLYSLSSVVTVPSSSLGTQTYICNVNHKPSNTKVDKKV
chain 2: TVAAPSVFIFPPSDEQLKSGTASVVCLLNNFYPREAKVQWKVDNALQSGNSQESVTEQDSKDSTYSLSSTLTLSKADYEKHKVYACEVTHQGLSSPVTKSFNRGERTEPKSSDKTHTCPPCPSGAPELLGGPSVFLFPPKPKDTLMISRTPEVTCVVVDVSHEDPEVKFNWYVDGVEVHNAKTKPREEQYNSTYRVVSVLTVLHQDWLNGKEYKCKVSNKALPAPIEKTISKAKGQPREPQVYTLPPSRDELTKNQVSLTCLVKGFYPSDIAVEWESNGQPENNYKTTPPVLDSDGSFFLYSKLTVDKSRWQQGNVFSCSVMHEALHNHYTQKSLSLSPGKSRTVAAPSVFIFPPSDEQLKSGTASVVCLLNNFYPREAKVQWKVDNALQSGNSQESVTEQDSKDSTYSLSSTLTLSKADYEKHKVYACEVTHQGLSSPVTKSFNRGE
binding result (CD28 on Jurkat T cells): binds

The next lines start with the values.

Kd (CD28 mIg [1]): 0.00969 µM
kon (CD28 mIg [2]): 348000 M⁻¹ s⁻¹
koff (CD28 mIg [3]): 0.00338 s⁻¹
Kd (CD28 mIg [4]): 0.0396 µM
B3: 2E12 single-chain variable fragment (scFv) (scFv)
scFv: QVQLKESGPGSVAPSQSLSITCTVSGFSLTGYGVNWVRQPPGKGLEWLGMIWGDGSTDYNSALKSRLSITKDNSKSQVFLKMNSLQTDDTARYYCARDGYSNFHYYVMDYWGQGTSVTVSSGGGGSGGGGSGGGGSGGGGSDIVLTQSPASLAVSLGQRATISCRASESVEYYVTSLMQWYQQKPGQPPKLLISAASNVESGVPARFSGSGSGTDFSLNIHPVEEDDIAMYFCQQSRKVPWTFGGGTKLEIK
notes: Any tag on the free scFv used in SPR is not described; also called 2E12 scFv

Kd (CD28 mIg [5]): 0.006 µM
ka (II) (CD28 mIg [6]): 0.00367
kon (CD28 mIg [7]): 176000 M⁻¹ s⁻¹
koff (CD28 mIg [8]): 0.00104 s⁻¹
Kd (CD28 mIg [9]): 0.0114 µM
kd (II) (CD28 mIg [10]): 0.0127 s⁻¹
fold affinity difference against the 2E12 SMIP (CD28 mIg [11]): 2 fold
B4: 2E12 monoclonal antibody (mAb) (antibody, V domains shown)
VH: QVQLKESGPGSVAPSQSLSITCTVSGFSLTGYGVNWVRQPPGKGLEWLGMIWGDGSTDYNSALKSRLSITKDNSKSQVFLKMNSLQTDDTARYYCARDGYSNFHYYVMDYWGQGTSVTVSS
VL: DIVLTQSPASLAVSLGQRATISCRASESVEYYVTSLMQWYQQKPGQPPKLLISAASNVESGVPARFSGSGSGTDFSLNIHPVEEDDIAMYFCQQSRKVPWTFGGGTKLEIK
notes: also called 2E12 mAb; 2E12 Mab
